Columns and labels:
[1] = target: rabbit antiserum against CTP37, rabbit # 4164; assay: competition immunoassay, peptide competitor against rabbit antiserum 4164; legend: ++ = ED 50 < 250 ng
[2] = target: rabbit antiserum against COMBINED LOOP + CTP37, rabbit # 4165; assay: competition immunoassay, peptide competitor against rabbit antiserum 4165; legend: ++ = ED 50 < 250 ng
[3] = target: rabbit antiserum against COMBINED LOOP + CTP37, rabbit # 4166; assay: competition immunoassay, peptide competitor against rabbit antiserum 4166; legend: ++ = ED 50 < 250 ng
[4] = target: rabbit antiserum against COMBINED LOOP + CTP37, rabbit # 4173; assay: competition immunoassay, peptide competitor against rabbit antiserum 4173; legend: ++ = ED 50 < 250 ng

ED50 [1]: 10 to 250 ng | ED50 [2]: 10 to 250 ng | ED50 [3]: 10 to 250 ng | ED50 [4]: 10 to 250 ng
Binder: CDDPRFQDSSSSKAPPPSLPS [hCG-CTP21 (residues 130-150 of the beta subunit of hCG)]

Source: patent publication US6764680
